{
  "source": "patent US20110166062A1",
  "binders": {"B1": {"name": "mt-297 (peptide)", "peptide": "Y[Aib]QGTFTSDYSIYLDKQAA[Aib]EFVCWLMNGGPSSGAPPPSK(Palmitoyl)-NH2", "modifications": "N-terminus assumed", "SMILES": "CCCCCCCCCCCCCCCC(=O)NCCCC[C@H](NC(=O)[C@H](CO)NC(=O)[C@@H]1CCCN1C(=O)[C@@H]1CCCN1C(=O)[C@@H]1CCCN1C(=O)[C@H](C)NC(=O)CNC(=O)[C@H](CO)NC(=O)[C@H](CO)NC(=O)[C@@H]1CCCN1C(=O)CNC(=O)CNC(=O)[C@H](CC(N)=O)NC(=O)[C@H](CCSC)NC(=O)[C@H](CC(C)C)NC(=O)[C@H](Cc1c[nH]c2ccccc12)NC(=O)[C@H](CS)NC(=O)[C@@H](NC(=O)[C@H](Cc1ccccc1)NC(=O)[C@H](CCC(=O)O)NC(=O)C(C)(C)NC(=O)[C@H](C)NC(=O)[C@H](C)NC(=O)[C@H](CCC(N)=O)NC(=O)[C@H](CCCCN)NC(=O)[C@H](CC(=O)O)NC(=O)[C@H](CC(C)C)NC(=O)[C@H](Cc1ccc(O)cc1)NC(=O)[C@@H](NC(=O)[C@H](CO)NC(=O)[C@H](Cc1ccc(O)cc1)NC(=O)[C@H](CC(=O)O)NC(=O)[C@H](CO)NC(=O)[C@@H](NC(=O)[C@H](Cc1ccccc1)NC(=O)[C@@H](NC(=O)CNC(=O)[C@H](CCC(N)=O)NC(=O)C(C)(C)NC(=O)[C@@H](N)Cc1ccc(O)cc1)[C@@H](C)O)[C@@H](C)O)[C@@H](C)CC)C(C)C)C(N)=O"}},
  "test_in_all_cases": "cell-based or functional assay",
  "key": {"GIP receptor, P48546": {"biological_target": "T1, GIP receptor, P48546", "T1 chain": "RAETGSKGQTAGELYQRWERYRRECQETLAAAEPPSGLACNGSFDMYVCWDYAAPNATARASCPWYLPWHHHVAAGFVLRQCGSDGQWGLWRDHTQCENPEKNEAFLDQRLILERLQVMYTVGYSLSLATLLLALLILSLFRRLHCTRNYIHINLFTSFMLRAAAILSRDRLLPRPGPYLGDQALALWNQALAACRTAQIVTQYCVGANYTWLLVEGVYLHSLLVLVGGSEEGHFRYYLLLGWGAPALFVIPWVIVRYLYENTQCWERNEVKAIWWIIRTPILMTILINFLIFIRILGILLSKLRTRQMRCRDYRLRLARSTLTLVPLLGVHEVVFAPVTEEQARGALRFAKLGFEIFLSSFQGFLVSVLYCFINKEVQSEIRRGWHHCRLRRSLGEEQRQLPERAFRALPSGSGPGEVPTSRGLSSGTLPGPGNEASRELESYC"}, "GLP-1 receptor, P43220": {"biological_target": "T2, GLP-1 receptor, P43220", "T2 chain": "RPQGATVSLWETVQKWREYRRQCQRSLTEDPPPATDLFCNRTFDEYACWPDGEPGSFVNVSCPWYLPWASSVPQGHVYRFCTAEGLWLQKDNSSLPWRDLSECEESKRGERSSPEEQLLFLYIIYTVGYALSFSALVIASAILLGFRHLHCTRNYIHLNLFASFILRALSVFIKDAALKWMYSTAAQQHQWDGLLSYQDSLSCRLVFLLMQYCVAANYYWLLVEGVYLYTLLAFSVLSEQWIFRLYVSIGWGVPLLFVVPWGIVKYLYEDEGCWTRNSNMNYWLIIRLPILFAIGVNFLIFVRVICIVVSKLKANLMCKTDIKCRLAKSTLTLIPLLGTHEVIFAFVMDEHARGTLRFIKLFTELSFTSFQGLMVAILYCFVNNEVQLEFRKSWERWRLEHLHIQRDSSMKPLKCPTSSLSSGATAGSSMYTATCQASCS"}, "[1]": {"biological_target": "glucagon receptor, P47871", "sequence (P47871 26-477 limits assumed)": "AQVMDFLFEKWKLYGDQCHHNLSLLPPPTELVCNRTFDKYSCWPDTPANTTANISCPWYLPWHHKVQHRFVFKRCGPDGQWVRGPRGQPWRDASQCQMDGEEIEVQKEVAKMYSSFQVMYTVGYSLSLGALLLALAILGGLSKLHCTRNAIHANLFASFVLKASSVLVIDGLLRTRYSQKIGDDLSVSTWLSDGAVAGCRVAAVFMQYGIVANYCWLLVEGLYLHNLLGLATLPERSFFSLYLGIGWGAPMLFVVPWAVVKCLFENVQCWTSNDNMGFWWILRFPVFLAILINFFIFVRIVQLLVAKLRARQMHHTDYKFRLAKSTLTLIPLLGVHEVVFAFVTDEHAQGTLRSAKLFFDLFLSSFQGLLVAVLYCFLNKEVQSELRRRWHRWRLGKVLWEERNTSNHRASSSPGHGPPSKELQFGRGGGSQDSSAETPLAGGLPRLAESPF"}},
  "note": "Where no end group is shown, it is not given here. [ ]: non-standard residue; d: D form. The star is where a group is joined. Palmitoyl = CCCCCCCCCCCCCCCC(=O)*; Aib = CC(C)(N)C(=O)O",
  "data": [
    {"binder": "B1", "values": [
      {"measurement": "EC50", "setting": "GIP receptor, P48546", "result": 0.0168, "unit": "nM"},
      {"measurement": "EC50", "setting": "GLP-1 receptor, P43220", "result": 0.0129, "unit": "nM"},
      {"measurement": "EC50", "setting": "[1]", "result": 0.0132, "unit": "nM"}
    ]}
  ]
}
